Where a chain is given by its changes, count along the chain named.

The record followed here is US20140179896A1 (published 2014).

The target in assay [1] is T1, human vascular endothelial growth factor receptor-2 Fc chimera (KDR-Fc) (human, UniProt P35968 20-764).
T1 construct: range 1-764; also called human VEGFR-2; hKDR; not shown: human IgG1 Fc
Description: binding to 1 nM KDR-Fc, % of input; radioactive equilibrium binding (assay not given). As to the method: (§1) To prepare ³⁵S-labeled binding proteins for analysis, mRNA was prepared as described above for RNA-protein fusion production but the linker ligation step was omitted. The mRNA was expressed using rabbit reticulocyte lysate translation kit (Ambion) in the presence of ³⁵S-labeled Met at 30° C. for 1 hour. Expressed protein was purified on M2-agarose Flag beads (Sigma) as described above. This procedure produced the encoded protein without the nucleic acid tail. In a direct binding assay, VEGF-R2-Fc fusions in concentrations ranging from 0 to 200 nM were added to a constant concentration of the purified protein (0.2 or 0.5 nM) and incubated at 30° C. for 1 hour in buffer B. The receptor-binder complexes were captured using Protein A magnetic beads for another 10 minutes at room temperature using a Kingfisher™ The beads were washed with six reaction volumes of buffer B. The protein was eluted from the beads with 100 μL of 0.1 M KOH. […] of the reaction mixture and elution were dried onto a LumaPlate-96 (Packard) and the amount of ³⁵S on the plate was measured using a TopCount NXT instrument (Packard). The amount of fibronectin-based scaffold protein bound to the target was estimated as a percent of radioactivity eluted from Protein A magnetic beads compare to radioactivity in the reaction mixture. Nonspecific binding of fibronectin-based scaffold proteins to the beads was determined by measuring binding in the absence of KDR-Fc and represented less than 1-2% of the input. Specific binding was obtained through subtraction of nonspecific binding from total binding. Data was analyzed using the GraphPad Prizm software (GraphPad Software, Inc, San Diego, Calif.), fitted using a one site, non-linear binding equation.
T1 sequence (P35968 20-764 limits assumed, change not shown, form in doubt): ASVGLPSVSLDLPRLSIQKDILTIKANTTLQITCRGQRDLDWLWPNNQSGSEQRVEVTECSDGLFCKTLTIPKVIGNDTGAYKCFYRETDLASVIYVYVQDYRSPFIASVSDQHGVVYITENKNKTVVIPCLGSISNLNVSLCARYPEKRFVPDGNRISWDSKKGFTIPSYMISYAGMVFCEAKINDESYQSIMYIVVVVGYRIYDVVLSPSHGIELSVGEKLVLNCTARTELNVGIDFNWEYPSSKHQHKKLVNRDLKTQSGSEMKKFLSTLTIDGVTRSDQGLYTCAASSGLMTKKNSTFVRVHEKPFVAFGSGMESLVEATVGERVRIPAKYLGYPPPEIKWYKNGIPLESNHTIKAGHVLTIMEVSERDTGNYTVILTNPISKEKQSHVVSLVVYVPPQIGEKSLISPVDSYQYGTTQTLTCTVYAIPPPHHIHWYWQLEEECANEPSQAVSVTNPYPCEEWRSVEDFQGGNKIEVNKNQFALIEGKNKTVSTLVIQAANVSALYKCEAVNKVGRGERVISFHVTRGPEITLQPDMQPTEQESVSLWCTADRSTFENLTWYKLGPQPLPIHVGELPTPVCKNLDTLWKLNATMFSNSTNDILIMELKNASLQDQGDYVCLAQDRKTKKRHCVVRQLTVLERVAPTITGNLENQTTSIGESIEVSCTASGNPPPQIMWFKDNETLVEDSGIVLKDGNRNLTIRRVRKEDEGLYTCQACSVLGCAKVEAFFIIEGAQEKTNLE

The target of assay [2] is T2, mouse vascular endothelial growth factor receptor-2 Fc chimera (Flk-1-Fc) (mouse, UniProt P35918 20-762).
T2 construct: Purchased from R&D Systems; also called mouse VEGF-R2; not shown: Fc part of the purchased chimera
Description: binding to 1 nM Flk-1-Fc, % of input; radioactive equilibrium binding (assay not given). The method, then: as §1

Assay [3] concerns the target T3, human vascular endothelial growth factor receptor-2 Fc chimera (KDR-Fc) (human, UniProt P35968 20-764).
T3 construct: range 1-764; purchased from R&D Systems; also called hKDR; human VEGF-R2-Fc; not shown: human IgG1 Fc
The assay can be described thus: radioactive equilibrium binding, 1 nM KDR-Fc. The procedure, abridged: (§2)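 Tracer: ³⁵S-Met protein from reticulocyte lysate, Flag-bead purified, no nucleic acid tail. 0.2/0.5 nM binder + 0–200 nM receptor-Fc, 30° C 1 h, buffer B; Protein A bead capture 10 min RT; 0.1 M KOH elution; scintillation count.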
T3 sequence (P35968 20-764 limits assumed, change not shown, form in doubt): as above

In assay [4] the target is T1, human vascular endothelial growth …. The assay can be described thus: radioactive equilibrium binding (assay not given). The method, then: as §1
Assay [5] concerns the target T4, human vascular endothelial growth factor receptor-2 Fc chimera (KDR-Fc) (human, UniProt P35968 20-764).
T4 construct: range 1-764; also called human VEGFR-2; VEGF-R2-Fc; not shown: human IgG1 Fc
The assay can be described thus: radioactive equilibrium binding, KDR-Fc. As to the method: as §1
T4 sequence (P35968 20-764 limits assumed, change not shown, form in doubt): as above

Assay [6] concerns the target T4, human vascular endothelial growth …. Description: radioactive equilibrium binding, 1 nM KDR-Fc. A digest of the protocol: as §2

T2 sequence (P35918 20-762, change not shown): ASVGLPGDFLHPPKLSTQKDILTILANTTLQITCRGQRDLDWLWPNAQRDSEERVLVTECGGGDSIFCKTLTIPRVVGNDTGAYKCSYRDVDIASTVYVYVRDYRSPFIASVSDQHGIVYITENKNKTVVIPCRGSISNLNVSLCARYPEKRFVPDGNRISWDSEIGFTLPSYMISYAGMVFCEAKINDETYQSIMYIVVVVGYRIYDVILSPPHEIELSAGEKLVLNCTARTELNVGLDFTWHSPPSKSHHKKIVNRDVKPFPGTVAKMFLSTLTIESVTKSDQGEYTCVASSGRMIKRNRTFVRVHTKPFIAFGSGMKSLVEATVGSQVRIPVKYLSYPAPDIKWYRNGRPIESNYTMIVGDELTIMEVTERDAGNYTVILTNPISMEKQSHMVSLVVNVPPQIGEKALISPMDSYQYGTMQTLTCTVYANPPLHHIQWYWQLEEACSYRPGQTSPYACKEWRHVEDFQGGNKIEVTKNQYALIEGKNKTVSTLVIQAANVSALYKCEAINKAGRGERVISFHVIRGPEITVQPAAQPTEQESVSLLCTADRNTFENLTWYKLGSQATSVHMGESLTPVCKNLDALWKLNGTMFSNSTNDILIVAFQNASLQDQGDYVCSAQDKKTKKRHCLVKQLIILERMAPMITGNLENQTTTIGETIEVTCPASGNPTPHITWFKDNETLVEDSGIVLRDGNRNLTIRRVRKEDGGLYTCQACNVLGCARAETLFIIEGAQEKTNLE

B1: E23 (designed binder)
chain: EVVAATPTSLLISWRHHPHFPTRYYRITYGETGGNSPVQEFTVPLQPPTATISGLKPGVDYTITGYAVTVHWNGRELMTPISINYRT
notes: Del 1-8 10Fn3 clone; Flag tag not included
Turning to B1, in assay [1], the “Binding to 1 nM KDR, %” value worked out at 36%. Further, in assay [2], the “Binding to 1 nM FLK, %” value was found to be 7%.

B2: E8 (designed binder)
chain: EVVAATPTSLLISWRHPHFPTRYYRITYGETGGNSPVQEFTVPLQPPTATISGLKPGVDYTITGYAVTEEWNGRVLMTPISINYRT
notes: Del 1-8 10Fn3 clone; Flag tag of the radioactive-assay form not included
Turning to B2, the “Binding to 1 nM KDR, %” value in assay [1] came out at 51%. For the same molecule, in assay [2], the “Binding to 1 nM FLK, %” value came to 10%.

B3: 4′B6 PR4 (designed binder)
chain: B2 chain with E69L, E70A, W71Q, G73D, R74H, V75E, M77I
notes: tag left out
Consider B3, for which, in assay [3], the “Binding to 1 nM KDR, %” value came to 11%.

B4: K5 (designed binder)
chain: B2 chain with E69M, E70G, W71P, G73D, R74N, V75E, M77L
notes: Del 1-8 10Fn3 clone; Flag tag of the assay form not included
In the case of B4, the Kd (commonly the concentration at which binding is half-saturated) in assay [4] amounted to 1.54 nM. For the same molecule, the “Binding to 1 nM KDR, %” value in assay [1] stood at 47%.

B5: K15 (designed binder)
chain: B2 chain with E70V, W71H, N72H, G73D, V75E, L76I, M77K
notes: as for B4
In the case of B5, the Kd in assay [4] came to 0.35 nM. In addition, the “Binding to 1 nM KDR, %” value in assay [1] was 25%.

B6: E12 (designed binder)
chain: B2 chain with E69F, E70A, W71R, N72D, R74H, V75E, L76I, M77L
notes: as for B2
For the molecule B6, the “Binding to 1 nM KDR, %” value in assay [1] worked out at 36%.

B7: K5 (designed binder)
chain: B2 chain with E69M, E70G, W71P, G73D, R74N, V75E, M77L
notes: Del 1-8
For the molecule B7, the Kd in assay [5] came out at 1.54 nM. The “Binding to 1 nM KDR, %” value in assay [6] was 47%.

B8: E21 (designed binder)
chain: B2 chain with E69W, E70G, W71Y, N72K, G73D, R74H, V75E, M77L, T78I
notes: as for B2
For B8, in assay [1], the “Binding to 1 nM KDR, %” value turned out to be 47%.

B9: K14 (designed binder)
chain: B2 chain with E69R, W71E, G73D, R74H, V75E, M77L, T78I
notes: as for B4
As for B9, in assay [4], the Kd was 0.57 nM. In addition, the “Binding to 1 nM KDR, %” value in assay [1] is 20%.

B10: K2 (designed binder)
chain: B2 chain with E69D, E70G, W71E, R74Q, V75F, M77L, T78V
notes: Del 1-8
Regarding B10, the Kd in assay [5] was found to be 1.19 nM. For the same molecule, the “Binding to 1 nM KDR, %” value in assay [6] was 48%.

B11: K7 (designed binder)
chain: B2 chain with E69S, E70G, W71H, G73D, R74H, V75M, T78I
notes: as for B4
Regarding B11, the Kd in assay [4] is 2.2 nM. Further, the “Binding to 1 nM KDR, %” value in assay [1] came to 40%.

B12: 4′G8 PR4 (designed binder)
chain: B2 chain with E69V, E70A, W71Q, R74H, V75E, M77L
notes: tag left out
Take B12: the “Binding to 1 nM KDR, %” value in assay [3] was 13%.

B13: K9 (designed binder)
chain: B2 chain with E69F, E70G, W71L, N72Y, R74K, V75E, M77L, T78I
notes: as for B4
For the molecule B13, the Kd in assay [4] was 1.8 nM. Besides, the “Binding to 1 nM KDR, %” value in assay [1] came out at 35%.

B14: E16 (designed binder)
chain: B2 chain with E69V, W71E, V75Q
notes: as for B2
With B14, the “Binding to 1 nM KDR, %” value in assay [1] came to 35%. Moreover, in assay [2], the “Binding to 1 nM FLK, %” value worked out at 0%.

B15: E15 (designed binder)
chain: B2 chain with E69L, W71P, V75Y, T78V
notes: as for B2
On to B15, for which the “Binding to 1 nM KDR, %” value in assay [1] worked out at 52%.

B16: K4 (designed binder)
chain: B2 chain with E69A, E70G, W71Y, G73D, R74Q, V75I
notes: Del 1-8
For the molecule B16, in assay [5], the Kd stood at 1.95 nM. Further, the “Binding to 1 nM KDR, %” value in assay [6] was 38%.

B17: K8 (designed binder)
chain: B2 chain with E69V, E70T, W71H, R74H, V75P
notes: as for B4
As to B17, the dissociation constant Kd in assay [4] is 3.3 nM. In assay [1], the “Binding to 1 nM KDR, %” value came to 18%.

B18: E14 (designed binder)
chain: B2 chain with E69L, W71R, R74Q, M77F
notes: as for B2
Regarding B18, in assay [1], the “Binding to 1 nM KDR, %” value worked out at 33%. Also, in assay [2], the “Binding to 1 nM FLK, %” value turned out to be 11%.

B19: K1 (designed binder)
chain: B2 chain with E69M, E70G, W71L, N72Y, R74H, V75E, M77L
notes: Del 1-8 10Fn3 clone; tag not included
Turning to B19, the Kd in assay [4] was found to be 0.55 nM. Further, in assay [1], the “Binding to 1 nM KDR, %” value is 48%.

B20: K4 (designed binder)
chain: B2 chain with E69A, E70G, W71Y, G73D, R74Q, V75I
notes: as for B4
As for B20, in assay [4], the Kd was found to be 1.95 nM. Further, the “Binding to 1 nM KDR, %” value in assay [1] worked out at 38%.

B21: K3 (designed binder)
chain: B2 chain with E69A, E70G, N72D, G73D, R74H, V75E, M77F, T78I
notes: as for B4
As for B21, the equilibrium dissociation constant (Kd) in assay [4] amounted to 1.15 nM. The “Binding to 1 nM KDR, %” value in assay [1] is 45%.

B22: E22 (designed binder)
chain: B2 chain with E69L, E70G, W71R, G73D, V75E, M77L
notes: as for B2
Regarding B22, the “Binding to 1 nM KDR, %” value in assay [1] came to 45%.

B23: E2 (designed binder)
chain: B2 chain with E69D, E70G, W71P, G73D, V75L, M77N, T78I
notes: as for B2
For B23, the “Binding to 1 nM KDR, %” value in assay [1] amounted to 53%.

B24: K2 (designed binder)
chain: B2 chain with E69D, E70G, W71E, R74Q, V75F, M77L, T78V
notes: as for B4
Regarding B24, in assay [4], the Kd is 1.19 nM. In addition, in assay [1], the “Binding to 1 nM KDR, %” value came to 48%.

B25: E20 (designed binder)
chain: B2 chain with E69V, W71R, R74Q, M77Y
notes: as for B2
As for B25, the “Binding to 1 nM KDR, %” value in assay [1] came out at 43%. For the same molecule, the “Binding to 1 nM FLK, %” value in assay [2] is 11%.

B26: E27 (designed binder)
chain: B2 chain with E69V, W71R, R74H, V75T
notes: as for B2
On to B26, for which, in assay [1], the “Binding to 1 nM KDR, %” value turned out to be 37%. In addition, in assay [2], the “Binding to 1 nM FLK, %” value amounted to 9%.

B27: K1 (designed binder)
chain: B2 chain with E69M, E70G, W71L, N72Y, R74H, V75E, M77L
notes: Del 1-8
With B27, in assay [5], the Kd is 0.55 nM. The “Binding to 1 nM KDR, %” value in assay [6] is 48%.

B28: K12 (designed binder)
chain: B2 chain with E69D, E70V, W71Y, G73D, R74H, V75E, L76I, M77K
notes: as for B4
For the molecule B28, the Kd in assay [4] worked out at 0.62 nM. In assay [1], the “Binding to 1 nM KDR, %” value was 29%.

B29: E24 (designed binder)
chain: B2 chain with E69V, W71R, G73D, M77F
notes: as for B2
On to B29, for which, in assay [1], the “Binding to 1 nM KDR, %” value worked out at 24%. In addition, the “Binding to 1 nM FLK, %” value in assay [2] turned out to be 29%.

B30: E17 (designed binder)
chain: B2 chain with E69V, W71E, M77N
notes: as for B2
Consider B30, for which the “Binding to 1 nM KDR, %” value in assay [1] amounted to 32%. In assay [2], the “Binding to 1 nM FLK, %” value is 10%.

B31: E13 (designed binder)
chain: B2 chain with E69L, W71Q, V75E
notes: as for B2
As to B31, in assay [1], the “Binding to 1 nM KDR, %” value stood at 38%.

B32: K10 (designed binder)
chain: B2 chain with E69T, E70G, W71P, G73D, V75L, M77F, T78V
notes: as for B4
As to B32, the Kd in assay [4] worked out at 0.57 nM. In addition, the “Binding to 1 nM KDR, %” value in assay [1] was found to be 33%.

B33: K13 (designed binder)
chain: B2 chain with E69L, E70A, W71L, N72K, R74H, V75E, M77L
notes: as for B4
On to B33, for which the Kd in assay [4] turned out to be 0.58 nM. The “Binding to 1 nM KDR, %” value in assay [1] amounted to 17%.

B34: K6 (designed binder)
chain: B2 chain with E69D, E70G, W71K, N72D, M77L
notes: as for B4
For B34, the Kd in assay [4] amounted to 0.93 nM. Moreover, the “Binding to 1 nM KDR, %” value in assay [1] came to 27%.

B35: K3 (designed binder)
chain: B2 chain with E69A, E70G, N72D, G73D, R74H, V75E, M77F, T78I
notes: Del 1-8
Turning to B35, in assay [5], the Kd came to 1.15 nM. Moreover, the “Binding to 1 nM KDR, %” value in assay [6] was found to be 45%.

B36: K11 (designed binder)
chain: B2 chain with E69Q, E70A, W71P, G73D, M77Y
notes: as for B4
Turning to B36, in assay [4], the Kd is 1.16 nM. Besides, the “Binding to 1 nM KDR, %” value in assay [1] came to 24%.

B37: E10 (designed binder)
chain: B2 chain with E70G, W71R, V75E, M77F, T78I
notes: as for B1
In the case of B37, the “Binding to 1 nM KDR, %” value in assay [1] is 53%.
